# Test results from patent publication US20190119358A1.
# *1 amine or outer side, *2 acyl side, *3 side chain or, on linkers, in order; H or OH if unused. Bridges are numbered along the chain shown (N, C = ends). Where no end group is shown, it is not given here. [ ]: non-standard residue; d: D form. The star is where a group is joined. Trp(7-aza) = N[C@@H](Cc1c[nH]c2ncccc12)C(=O)O; NMePhe(4-F) = CN[C@@H](Cc1ccc(F)cc1)C(=O)O; ivDde = CC(C)CC(=C1C(=O)CC(C)(C)CC1=O)*; mXylylene = c1cc(C[*:1])cc(C[*:2])c1; NMeY = CN[C@@H](Cc1ccc(O)cc1)C(=O)O; dPhg = N[C@@H](C(=O)O)c1ccccc1; NMeK = CN[C@@H](CCCCN)C(=O)O; Phg = N[C@H](C(=O)O)c1ccccc1; Tle = CC(C)(C)[C@H](N)C(=O)O; NMeS = CN[C@@H](CO)C(=O)O; NMeA = CN[C@@H](C)C(=O)O; Orn = NCCC[C@H](N)C(=O)O; Pra = C#CC[C@H](N)C(=O)O; Nva = CCC[C@H](N)C(=O)O; Dap = NC[C@H](N)C(=O)O; PEG2 = NCCOCCOCCC(=O)O; AEEA = NCCOCCOCC(=O)O; Acryloyl = C=CC(=O)*; Ava = NCCCCC(=O)O; Sar = CNCC(=O)O
# Target: GMPPNP-loaded H-Ras or GTP-loaded K-Ras
# Experiment: FP competition, displacement of probe R4007 from Ras
row,IC50,Binder
1,268 nM,cyclo([AEEA]Y[Tle]KH[NMeA][Phg][Trp(7-aza)]Y[NMePhe(4-F)][Sar][Pra]) (SMILES C#CC[C@@H]1NC(=O)CN(C)C(=O)[C@H](Cc2ccc(F)cc2)N(C)C(=O)[C@H](Cc2ccc(O)cc2)NC(=O)[C@H](Cc2c[nH]c3ncccc23)NC(=O)[C@H](c2ccccc2)NC(=O)[C@H](C)N(C)C(=O)[C@H](Cc2c[nH]cn2)NC(=O)[C@H](CCCCN)NC(=O)[C@H](C(C)(C)C)NC(=O)[C@H](Cc2ccc(O)cc2)NC(=O)COCCOCCNC1=O) [R4130]
2,342 nM,Ac-[Nva]CY[Tle]AH[NMeK](Acryloyl)[Phg][Trp(7-aza)]Y[NMePhe(4-F)][Sar]C-NH2 (linker 2-13 via mXylylene; SMILES C=CC(=O)NCCCC[C@H]1C(=O)N[C@@H](c2ccccc2)C(=O)N[C@@H](Cc2c[nH]c3ncccc23)C(=O)N[C@@H](Cc2ccc(O)cc2)C(=O)N(C)[C@@H](Cc2ccc(F)cc2)C(=O)N(C)CC(=O)N[C@H](C(N)=O)CSCc2cccc(c2)CSC[C@H](NC(=O)[C@H](CCC)NC(C)=O)C(=O)N[C@@H](Cc2ccc(O)cc2)C(=O)N[C@@H](C(C)(C)C)C(=O)N[C@@H](C)C(=O)N[C@@H](Cc2c[nH]cn2)C(=O)N1C) [R4133]
3,281 nM,Ac-[Nva]CY[Tle]KH[NMeS][Phg][Trp(7-aza)]Y[NMePhe(4-F)][Sar]C-NH2 (linker 2-13 via mXylylene; SMILES CCC[C@H](NC(C)=O)C(=O)N[C@H]1CSCc2cccc(c2)CSC[C@@H](C(N)=O)NC(=O)CN(C)C(=O)[C@H](Cc2ccc(F)cc2)N(C)C(=O)[C@H](Cc2ccc(O)cc2)NC(=O)[C@H](Cc2c[nH]c3ncccc23)NC(=O)[C@H](c2ccccc2)NC(=O)[C@H](CO)N(C)C(=O)[C@H](Cc2c[nH]cn2)NC(=O)[C@H](CCCCN)NC(=O)[C@H](C(C)(C)C)NC(=O)[C@H](Cc2ccc(O)cc2)NC1=O) [R4132]
4,110 nM,Ac-[Nva]CY[Tle]AH[NMeK][Phg][Trp(7-aza)]Y[NMePhe(4-F)][Sar]C-NH2 (linker 2-13 via mXylylene; SMILES CCC[C@H](NC(C)=O)C(=O)N[C@H]1CSCc2cccc(c2)CSC[C@@H](C(N)=O)NC(=O)CN(C)C(=O)[C@H](Cc2ccc(F)cc2)N(C)C(=O)[C@H](Cc2ccc(O)cc2)NC(=O)[C@H](Cc2c[nH]c3ncccc23)NC(=O)[C@H](c2ccccc2)NC(=O)[C@H](CCCCN)N(C)C(=O)[C@H](Cc2c[nH]cn2)NC(=O)[C@H](C)NC(=O)[C@H](C(C)(C)C)NC(=O)[C@H](Cc2ccc(O)cc2)NC1=O) [R4125]
5,73 nM,Ac-[Nva]CY[Tle]KH[NMeA][dPhg][Trp(7-aza)]Y[NMePhe(4-F)][NMeA]C-NH2 (linker 2-13 via mXylylene; SMILES CCC[C@H](NC(C)=O)C(=O)N[C@H]1CSCc2cccc(c2)CSC[C@@H](C(N)=O)NC(=O)[C@H](C)N(C)C(=O)[C@H](Cc2ccc(F)cc2)N(C)C(=O)[C@H](Cc2ccc(O)cc2)NC(=O)[C@H](Cc2c[nH]c3ncccc23)NC(=O)[C@@H](c2ccccc2)NC(=O)[C@H](C)N(C)C(=O)[C@H](Cc2c[nH]cn2)NC(=O)[C@H](CCCCN)NC(=O)[C@H](C(C)(C)C)NC(=O)[C@H](Cc2ccc(O)cc2)NC1=O) [R4121]
6,148 nM,Ac-[Nva]CY[Tle]KH[NMeA][Phg][Trp(7-aza)]Y[NMePhe(4-F)][Sar]CGGGCVIM-NH2 (linker 2-13 via mXylylene; SMILES CCC[C@H](NC(C)=O)C(=O)N[C@H]1CSCc2cccc(c2)CSC[C@@H](C(=O)NCC(=O)NCC(=O)NCC(=O)N[C@@H](CS)C(=O)N[C@H](C(=O)N[C@H](C(=O)N[C@@H](CCSC)C(N)=O)[C@@H](C)CC)C(C)C)NC(=O)CN(C)C(=O)[C@H](Cc2ccc(F)cc2)N(C)C(=O)[C@H](Cc2ccc(O)cc2)NC(=O)[C@H](Cc2c[nH]c3ncccc23)NC(=O)[C@H](c2ccccc2)NC(=O)[C@H](C)N(C)C(=O)[C@H](Cc2c[nH]cn2)NC(=O)[C@H](CCCCN)NC(=O)[C@H](C(C)(C)C)NC(=O)[C@H](Cc2ccc(O)cc2)NC1=O) [R4127]
7,227 nM,Ac-[Nva]C[NMeY][Tle]KH[NMeA][Phg][Trp(7-aza)]Y[NMePhe(4-F)][Sar]C[dS][dA]K[Cys(StBu)]VIM (linker 2-13 via mXylylene) [R4129]
8,392 nM,Ac-[Nva]CY[Tle]A[Dap](Acryloyl)[NMeA][Phg][Trp(7-aza)]Y[NMePhe(4-F)][Sar]C-NH2 (linker 2-13 via mXylylene; SMILES C=CC(=O)NC[C@@H]1NC(=O)[C@H](C)NC(=O)[C@H](C(C)(C)C)NC(=O)[C@H](Cc2ccc(O)cc2)NC(=O)[C@@H](NC(=O)[C@H](CCC)NC(C)=O)CSCc2cccc(c2)CSC[C@@H](C(N)=O)NC(=O)CN(C)C(=O)[C@H](Cc2ccc(F)cc2)N(C)C(=O)[C@H](Cc2ccc(O)cc2)NC(=O)[C@H](Cc2c[nH]c3ncccc23)NC(=O)[C@H](c2ccccc2)NC(=O)[C@H](C)N(C)C1=O) [R4136]
9,127 nM,Ac-[Nva]CY[Tle]KA[NMeA][Phg][Trp(7-aza)]Y[NMePhe(4-F)][Sar]C-NH2 (linker 2-13 via mXylylene; SMILES CCC[C@H](NC(C)=O)C(=O)N[C@H]1CSCc2cccc(c2)CSC[C@@H](C(N)=O)NC(=O)CN(C)C(=O)[C@H](Cc2ccc(F)cc2)N(C)C(=O)[C@H](Cc2ccc(O)cc2)NC(=O)[C@H](Cc2c[nH]c3ncccc23)NC(=O)[C@H](c2ccccc2)NC(=O)[C@H](C)N(C)C(=O)[C@H](C)NC(=O)[C@H](CCCCN)NC(=O)[C@H](C(C)(C)C)NC(=O)[C@H](Cc2ccc(O)cc2)NC1=O) [R4126]
10,88.4 nM,cyclo([PEG2]Y[Tle]KH[NMeA][Phg][Trp(7-aza)]Y[NMePhe(4-F)][Sar]) (SMILES C[C@H]1C(=O)N[C@@H](c2ccccc2)C(=O)N[C@@H](Cc2c[nH]c3ncccc23)C(=O)N[C@@H](Cc2ccc(O)cc2)C(=O)N(C)[C@@H](Cc2ccc(F)cc2)C(=O)N(C)CC(=O)NCCOCCOCCC(=O)N[C@@H](Cc2ccc(O)cc2)C(=O)N[C@@H](C(C)(C)C)C(=O)N[C@@H](CCCCN)C(=O)N[C@@H](Cc2c[nH]cn2)C(=O)N1C) [R4124]
11,364 nM,Ac-[Nva]CY[Tle]K(ivDde)H[NMeA][Phg][Trp(7-aza)]Y[NMePhe(4-F)][Sar]C (linker 2-13 via m‑xylylene) [R4135]
12,346 nM,Ac-[Nva]CY[Tle]K(4‑(dimethylamino)benzoyl)H[NMeA][Phg][Trp(7-aza)]Y[NMePhe(4-F)][Sar]C-NH2 (linker 2-13 via mXylylene) [R4134]
13,85 nM,Ac-[Nva]CY[Tle]AK(Acryloyl)[NMeA][Phg][Trp(7-aza)]Y[NMePhe(4-F)][Sar]C-NH2 (linker 2-13 via mXylylene; SMILES C=CC(=O)NCCCC[C@@H]1NC(=O)[C@H](C)NC(=O)[C@H](C(C)(C)C)NC(=O)[C@H](Cc2ccc(O)cc2)NC(=O)[C@@H](NC(=O)[C@H](CCC)NC(C)=O)CSCc2cccc(c2)CSC[C@@H](C(N)=O)NC(=O)CN(C)C(=O)[C@H](Cc2ccc(F)cc2)N(C)C(=O)[C@H](Cc2ccc(O)cc2)NC(=O)[C@H](Cc2c[nH]c3ncccc23)NC(=O)[C@H](c2ccccc2)NC(=O)[C@H](C)N(C)C1=O) [R4123]
14,215 nM,cyclo([Ava]Y[Tle]KH[NMeA][Phg][Trp(7-aza)]Y[NMePhe(4-F)][Sar][Pra]) (SMILES C#CC[C@@H]1NC(=O)CN(C)C(=O)[C@H](Cc2ccc(F)cc2)N(C)C(=O)[C@H](Cc2ccc(O)cc2)NC(=O)[C@H](Cc2c[nH]c3ncccc23)NC(=O)[C@H](c2ccccc2)NC(=O)[C@H](C)N(C)C(=O)[C@H](Cc2c[nH]cn2)NC(=O)[C@H](CCCCN)NC(=O)[C@H](C(C)(C)C)NC(=O)[C@H](Cc2ccc(O)cc2)NC(=O)CCCCNC1=O) [R4128]
15,65.7 nM,Ac-[Nva]CY[Tle]KH[NMeA][Phg][Trp(7-aza)]Y[NMePhe(4-F)][Sar]CGGGCAIL-NH2 (linker 2-13 via mXylylene; SMILES CCC[C@H](NC(C)=O)C(=O)N[C@H]1CSCc2cccc(c2)CSC[C@@H](C(=O)NCC(=O)NCC(=O)NCC(=O)N[C@@H](CS)C(=O)N[C@@H](C)C(=O)N[C@H](C(=O)N[C@@H](CC(C)C)C(N)=O)[C@@H](C)CC)NC(=O)CN(C)C(=O)[C@H](Cc2ccc(F)cc2)N(C)C(=O)[C@H](Cc2ccc(O)cc2)NC(=O)[C@H](Cc2c[nH]c3ncccc23)NC(=O)[C@H](c2ccccc2)NC(=O)[C@H](C)N(C)C(=O)[C@H](Cc2c[nH]cn2)NC(=O)[C@H](CCCCN)NC(=O)[C@H](C(C)(C)C)NC(=O)[C@H](Cc2ccc(O)cc2)NC1=O) [R4120]
16,278 nM,Ac-[Nva]CY[Tle]KH[NMeA][Phg][Trp(7-aza)]Y[NMePhe(4-F)][Sar]CGGGCVIM (linker 2-13 via mXylylene) [R4131]
17,77.1 nM,Ac-[Nva]CY[Tle]A[Orn](Acryloyl)[NMeA][Phg][Trp(7-aza)]Y[NMePhe(4-F)][Sar]C-NH2 (linker 2-13 via mXylylene; SMILES C=CC(=O)NCCC[C@@H]1NC(=O)[C@H](C)NC(=O)[C@H](C(C)(C)C)NC(=O)[C@H](Cc2ccc(O)cc2)NC(=O)[C@@H](NC(=O)[C@H](CCC)NC(C)=O)CSCc2cccc(c2)CSC[C@@H](C(N)=O)NC(=O)CN(C)C(=O)[C@H](Cc2ccc(F)cc2)N(C)C(=O)[C@H](Cc2ccc(O)cc2)NC(=O)[C@H](Cc2c[nH]c3ncccc23)NC(=O)[C@H](c2ccccc2)NC(=O)[C@H](C)N(C)C1=O) [R4122]
